B1: CHMP4C (parent)
chain: TNIRLPNVPSSSLPAQPNRKPGMS

Variants of: B1
Assay: protein stability index of a GFP-peptide fusion (GPS, HEK-293T) (PSI 1-6); higher = more stable
Details: c terminus: a fixed tail appended
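Also: lentivirally expressed fusions sorted by FACS into six bins by GFP to DsRed ratio, PSI derived from sequencing read proportions per bin multiplied by bin number.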

| Variant | protein stability index |
| --- | --- |
| TNIRLPNVPSSSLWAQPNRKPGMS [P14W] | 4.01 |
| TNIRLPNVPSSSLDAQPNRKPGMS [P14D] | 4.5 |
| TNIRLPNVPSSSLHAQPNRKPGMS [P14H] | 4.37 |
| TNIRLPNVPSSSLMAQPNRKPGMS [P14M] | 4.47 |
| TNIRLPNVPSSSLTAQPNRKPGMS [P14T] | 4.39 |
| TNIRLPNVPSSSLNAQPNRKPGMS [P14N] | 4.41 |
| TNIRLPNVPSSSLSAQPNRKPGMS [P14S] | 4.69 |
| TNIRLPNVPSSSLLAQPNRKPGMS [P14L] | 4.19 |
| TNIRLPNVPSSSLYAQPNRKPGMS [P14Y] | 3.67 |
| TNIRLPNVPSSSLEAQPNRKPGMS [P14E] | 4.7 |
| TNIRLPNVPSSSLRAQPNRKPGMS [P14R] | 4.4 |
| TNIRLPNVPSSSLQAQPNRKPGMS [P14Q] | 4.98 |
| TNIRLPNVPSSSLAAQPNRKPGMS [P14A] | 4.14 |
| TNIRLPNVPSSSLCAQPNRKPGMS [P14C] | 3.94 |
| TNIRLPNVPSSSLIAQPNRKPGMS [P14I] | 4.22 |
| TNIRLPNVPSSSLKAQPNRKPGMS [P14K] | 4.39 |
| TNIRLPNVPSSSLGAQPNRKPGMS [P14G] | 4.67 |
| TNIRLPNVPSSSLFAQPNRKPGMS [P14F] | 4.22 |
| TNIRLPNVPSSSLVAQPNRKPGMS [P14V] | 4.93 |
| TNIRLPIVPSSSLPAQPNRKPGMS [N7I] | 3.95 |
| TNIRLPWVPSSSLPAQPNRKPGMS [N7W] | 4.11 |
| TNIRLPFVPSSSLPAQPNRKPGMS [N7F] | 3.38 |
| TNIRLPKVPSSSLPAQPNRKPGMS [N7K] | 4.52 |
| TNIRLPRVPSSSLPAQPNRKPGMS [N7R] | 4.41 |

| Variant | protein stability index |
| --- | --- |
| TNIRLPMVPSSSLPAQPNRKPGMS [N7M] | 4.82 |
| TNIRLPAVPSSSLPAQPNRKPGMS [N7A] | 4.61 |
| TNIRLPPVPSSSLPAQPNRKPGMS [N7P] | 5.37 |
| TNIRLPVVPSSSLPAQPNRKPGMS [N7V] | 4.45 |
| TNIRLPSVPSSSLPAQPNRKPGMS [N7S] | 4.89 |
| TNIRLPLVPSSSLPAQPNRKPGMS [N7L] | 4.67 |
| TNIRLPHVPSSSLPAQPNRKPGMS [N7H] | 4.62 |
| TNIRLPDVPSSSLPAQPNRKPGMS [N7D] | 4.49 |
| TNIRLPQVPSSSLPAQPNRKPGMS [N7Q] | 4.1 |
| TNIRLPGVPSSSLPAQPNRKPGMS [N7G] | 4.76 |
| TNIRLPYVPSSSLPAQPNRKPGMS [N7Y] | 4.13 |
| TNIRLPTVPSSSLPAQPNRKPGMS [N7T] | 4.95 |
| TNIRLPEVPSSSLPAQPNRKPGMS [N7E] | 4.26 |
| TNIRLPCVPSSSLPAQPNRKPGMS [N7C] | 4.56 |
| TNIRLPNVPSSSLPEQPNRKPGMS [A15E] | 4.64 |
| TNIRLPNVPSSSLPCQPNRKPGMS [A15C] | 4.54 |
| TNIRLPNVPSSSLPNQPNRKPGMS [A15N] | 4.44 |
| TNIRLPNVPSSSLPDQPNRKPGMS [A15D] | 4.75 |
| TNIRLPNVPSSSLPKQPNRKPGMS [A15K] | 4.58 |
| TNIRLPNVPSSSLPGQPNRKPGMS [A15G] | 4.69 |
| TNIRLPNVPSSSLPLQPNRKPGMS [A15L] | 4.19 |
| TNIRLPNVPSSSLPFQPNRKPGMS [A15F] | 4.21 |
| TNIRLPNVPSSSLPMQPNRKPGMS [A15M] | 4.16 |
| TNIRLPNVPSSSLPHQPNRKPGMS [A15H] | 4.59 |

| Variant | protein stability index |
| --- | --- |
| TNIRLPNVPSSSLPIQPNRKPGMS [A15I] | 4.34 |
| TNIRLPNVPSSRLPAQPNRKPGMS [S12R] | 4.51 |
| TNIRLPNVPSSHLPAQPNRKPGMS [S12H] | 4.35 |
| TNIRLPNVPSSCLPAQPNRKPGMS [S12C] | 4.18 |
| TNIRLPNVPSSYLPAQPNRKPGMS [S12Y] | 4.12 |
| TNIRLPNVPSSELPAQPNRKPGMS [S12E] | 5.06 |
| TNIRLPNVPSSVLPAQPNRKPGMS [S12V] | 4.8 |
| TNIRLPNVPSSNLPAQPNRKPGMS [S12N] | 4.68 |
| TNIRLPNVPSSALPAQPNRKPGMS [S12A] | 4.51 |
| TNIRLPNVPSSKLPAQPNRKPGMS [S12K] | 4.44 |
| TNIRLPNVPSSILPAQPNRKPGMS [S12I] | 4.56 |
| TNIRLPNVPSSDLPAQPNRKPGMS [S12D] | 4.67 |
| TNIRLPNVPSSQLPAQPNRKPGMS [S12Q] | 4.66 |
| TNIRLPNVPSSWLPAQPNRKPGMS [S12W] | 3.25 |
| TNIRLPNVPSSLLPAQPNRKPGMS [S12L] | 3.44 |
| TNIRLPNVPSSPLPAQPNRKPGMS [S12P] | 4.34 |
| TNIRLPNVPSSTLPAQPNRKPGMS [S12T] | 4.07 |
| TNIRLPNVPSSMLPAQPNRKPGMS [S12M] | 4.33 |
| TNIRLPNVPSSFLPAQPNRKPGMS [S12F] | 4.29 |
| TNIRLPNVPSSGLPAQPNRKPGMS [S12G] | 4.27 |
| TNIRLPNVPPSSLPAQPNRKPGMS [S10P] | 4.39 |
| TNIRLPNVPRSSLPAQPNRKPGMS [S10R] | 4.06 |
| TNIRLPNVPVSSLPAQPNRKPGMS [S10V] | 4.2 |
| TNIRLPNVPKSSLPAQPNRKPGMS [S10K] | 4.24 |

| Variant | protein stability index |
| --- | --- |
| TNIRLPNVPDSSLPAQPNRKPGMS [S10D] | 4.84 |
| TNIRLPNVPNSSLPAQPNRKPGMS [S10N] | 3.58 |
| TNIRLPNVPESSLPAQPNRKPGMS [S10E] | 4.51 |
| TNIRLPNVPCSSLPAQPNRKPGMS [S10C] | 4.83 |
| TNIRLPNVPYSSLPAQPNRKPGMS [S10Y] | 4.22 |
| TNIRLPNVPGSSLPAQPNRKPGMS [S10G] | 4.75 |
| TNIRLPNVPTSSLPAQPNRKPGMS [S10T] | 4.1 |
| TNIRLPNVPLSSLPAQPNRKPGMS [S10L] | 4.09 |
| TNIRLPNVPASSLPAQPNRKPGMS [S10A] | 4.62 |
| TNIRLPNVPFSSLPAQPNRKPGMS [S10F] | 4.05 |
| TNIRLPNVPMSSLPAQPNRKPGMS [S10M] | 4.48 |
| TNIRLPNVPWSSLPAQPNRKPGMS [S10W] | 4.46 |
| TNIRLPNVPISSLPAQPNRKPGMS [S10I] | 4.6 |
| TNIRLPNVPHSSLPAQPNRKPGMS [S10H] | 4.76 |
| TNIRLPNVPQSSLPAQPNRKPGMS [S10Q] | 4.73 |
| TNIRVPNVPSSSLPAQPNRKPGMS [L5V] | 4.7 |
| TNIRRPNVPSSSLPAQPNRKPGMS [L5R] | 4.42 |
| TNIRQPNVPSSSLPAQPNRKPGMS [L5Q] | 4.69 |
| TNIRYPNVPSSSLPAQPNRKPGMS [L5Y] | 4.58 |
| TNIRWPNVPSSSLPAQPNRKPGMS [L5W] | 4.31 |
| TNIRTPNVPSSSLPAQPNRKPGMS [L5T] | 4.74 |
| TNIRSPNVPSSSLPAQPNRKPGMS [L5S] | 4.18 |

Reference: the supplement of paper PMC10567573
